Columns and labels:
[1] = target: the molecule itself; assay: SDS-PAGE with/without BME
[2] = target: T1, PDZ-RhoGEF PDZ domain (residues 41-123), human (human, UniProt O15085 41-123); assay: crystal structure
T1 sequence (looked up): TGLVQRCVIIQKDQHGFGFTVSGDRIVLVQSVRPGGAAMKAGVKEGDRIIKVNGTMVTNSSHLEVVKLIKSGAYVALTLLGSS

B1: rPDZ-CXCR2 fusion protein: human PDZ-RhoGEF PDZ (residues 41-123) with the C-terminal extension TSTTL of human CXCR2 (other)
chain: TGLVQRCVIIQKDQHGFGFTVSGDRIVLVQSVRPGGAAMKAGVKEGDRIIKVNGTMVTNSSHLEVVKLIKSGAYVALTLLGSSTSTTL
stoichiometry N [1]: 2

B2: CXCR2 C-terminal PDZ binding motif TSTTL (residues 356-360 of human CXCR2) (peptide)
peptide: TSTTL
binding result [2]: binds

From PMC5367461 (Biochemical and biophysical research communications, 2017)
